Experimental findings from patent publication US20260183393A1, “IMMUNOSUPPRESSANT-RESISTANT MODIFIED ALLOGENEIC MODIFIED IMMUNE CELLS AND METHODS FOR USE THEREOF” (Beam Therapeutics Inc., priority 2023, published 2026) are described below.

One data set deals with 19CAR-T cells. Kind of data set: CAR-T cell proliferation assay. In kind it is cell-based, human. The note with it: 100 nM rapamycin. An excerpt: Primary human T cells were activated using an anti-CD3/CD28/CD2 reagent. Two-days after being contacted with the reagent, the T cells were edited using a base editor system containing the guide polynucleotide TSBT×1538 and the base editor ABE8.20m using electroporation, as described above. Following electroporation, both the T cells were transduced with a lentiviral vector encoding an anti-CD19 CAR (19CAR) and allowed to expand in culture for approximately 7 days before being cryopreserved for later analysis. Unedited anti-CD19 CAR-T cells were prepared as a negative control. The 19CAR-T cells were then thawed from cryopreservation and rested overnight before being stimulated using dynabeads coated with recombinant human CD19 protein-coated at a bead-to-cell ratio of 1:1. The T cells were cultured in the presence of 100 nM of the immunosuppressant rapamycin or dimethylsulfoxide (DMSO) as a control for 6 days. The total number of T cells were enumerated using a NucleoCounter NC-200™ automated cell counter.
Primary human T cells were activated using an anti-CD3/CD28/CD2 reagent. Two days after being contacted with the reagent, the T cells were edited using a base editor system containing the guide polynucleotide TSBT×1538 and the base editor ABE8.20m using the electroporation protocol described above. Both edited and unedited T cells were transduced with a lentiviral vector encoding an anti-CD19 CAR (19CAR) and allowed to expand in culture for approximately 7 days before being cryopreserved for later analysis. Unedited 19CAR-T cells were used as a control. For analysis, the 19CAR-T cells were thawed and rested for 72 hours before labeling using a CellTrace™ Far Red (CTFR) dye. After CTFR labeling, the 19CAR-T cells were stimulated using an Immunocult™ Human CD3/CD28/CD2 universal T cell activator in the presence of 100 nM of the immunosuppressant agent rapamycin or in the presence of DMSO (control) and allowed to incubate for an additional 3 days. Following the three-day incubation, the T cells were analyzed using flow cytometry to measure dilution of CTFR dye as an indicator of cell proliferation.
The following day, T cells were washed, counted and 1×10^4 cells were seeded in triplicate into a 96-well flat bottom plate alone or with 1×10^4 JeKo-1.GFP^+ tumor cells. […] On day 7, samples were analyzed by flow cytometry and 19CAR-T cells were enumerated using CountBright Counting Beads (Thermo Fisher Scientific) following the manufacturer's protocol.

In another data set the test system is FKBP1A polynucleotide. Put plainly: Base editing of FKBP1A in primary human T cells, next-generation sequencing. In kind it is cell-based. The note with it: ABE8.20m mRNA and sgRNA electroporated into activated primary human T cells; NGS. From the text:
FIG. 3 provides a bar graph showing maximum A to G and C to T base editing within an FKBP1A polynucleotide achieved using base editor systems containing one of the guide polynucleotides indicated along the x-axis (see Table 1 for nucleotide sequences) and either an adenosine deaminase base editor (ABE) or a cytidine deaminase base editor (CBE), as indicated. The ABE was ABE8.20m and the CBE was rBE4. Primary human T cells were thawed and activated in vitro using an anti-CD3/CD28/CD2 reagent. On day 2 following contacting with the reagent, the T cells were washed and resuspended in P3 Buffer (Lonza) and plated in 96-well electroporation plates containing 2 μg ABE8.20m or rBE4 (CBE) and 2 μg of the indicated guide polynucleotide targeting the FKBP1A (FKBP prolyl isomerase 1A) polynucleotide. Plates were electroporated using a DH-102 setting on a Lonza Nucleofector™ 96-well plate unit. The electroporated cells were incubated for 3 days. […]
Healthy donor adult human leukopaks were commercially obtained from HemaCare (Charles River). […] Two-days post-activation, T cells were counted, washed with sterile PBS (Gibco) and resuspended in P3 buffer (Lonza) at 10^7 cells mL^−1. […]

Another data set has as its system FKBP1A protein. Kind of data set: Western blot of FKBP1A protein in edited T cells. The note with it: T cells edited with ABE8.20m and TSBT×1538 sgRNA. It is filed as cell-based, human. The protocol: Primary human T cells were activated with anti-CD3/CD28/CD2 reagent. On day 2 following contacting with the reagent, the T cells were contacted with the TSBT×1538 sgRNA and ABE8.20m and subsequently incubated for approximately 5 days. Unedited cells were used as a negative control. Following the approximately 5-day incubation, the cells were harvested and cell-associated protein was extracted to be evaluated in the Western blot analysis. Protein samples from the edited and unedited cells were contacted with a rabbit anti-FKBP1A or mouse anti-GAPDH (control used to normalize protein concentrations) antibodies, followed by staining with secondary anti-rabbit (HRP) and anti-mouse (NIR) antibodies, respectively. Protein was analyzed using the Jess automated Western blot analysis device available from ProteinSimple.
Background: In western blotting, separated proteins are transferred to a membrane and probed.

Entries after “also recorded” stand apart in the source; their conditions may differ.

B1: TSBT×1538: guide polynucleotide targeting FKBP1A, SEQ ID NO: 501 (nucleic acid)
guide: CTCACCGTCTCCTGGGGAGAGTTTTAGAGCTAGAAATAGCAAGTTAAAATAAGGCTAGTCCGTTATCAACTTGAAAAAGTGGCACCGAGTCGGTGCTTTT
modifications: chemistry not given here
Turning to B1, the “cell proliferation in response to a universal T cell activator” value with 19CAR-T cells (19CAR-T cells edited with ABE8.20m and the guide, 3 days, CTFR dilution) is listed as “improved cell proliferation”. Further, in the data set with 19CAR-T cells (anti-CD19 CAR-T cells edited with ABE8.20m and the guide, CD19-coated dynabeads 1:1, 6 days), the “proliferation in the presence of rapamycin” value is recorded as “improved proliferation”. Besides, in the data set on FKBP1A polynucleotide, the “mean on-target genomic editing efficiency” value is recorded as 93.7%. For the same molecule, the FKBP1A protein expression result in the data set on FKBP1A protein was “knock-out of FKBP1A protein expression; also recorded: reduced protein expression”.
